Reference: US20230220042A1 (SHANGHAI JIAO TONG UNIVERSITY SCHOOL OF MEDICINE, published 2023)

T1: FcγRIIB (human, UniProt P31994 43-217, biotin-labeled)
T1 construct: extracellular domain; Bought protein; also called CD32b
T1 sequence (looked up): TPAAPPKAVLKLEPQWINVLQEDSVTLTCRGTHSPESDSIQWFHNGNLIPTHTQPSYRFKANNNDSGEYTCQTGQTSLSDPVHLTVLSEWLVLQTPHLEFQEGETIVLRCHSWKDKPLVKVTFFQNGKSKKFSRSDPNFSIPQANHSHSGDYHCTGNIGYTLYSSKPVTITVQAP

T2: FcγRIIA^131H (human, UniProt P12318 34-217, biotin-labeled)
T2 construct: extracellular domain; Bought protein; also called RIIAH
T2 sequence (looked up): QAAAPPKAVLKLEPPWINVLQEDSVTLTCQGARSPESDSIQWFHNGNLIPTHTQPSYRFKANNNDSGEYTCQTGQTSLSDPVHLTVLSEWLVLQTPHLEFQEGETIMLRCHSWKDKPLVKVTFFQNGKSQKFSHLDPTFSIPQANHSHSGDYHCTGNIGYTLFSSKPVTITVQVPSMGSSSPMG

T3: FcγRIIA^131R (human, UniProt P12318 34-217, biotin-labeled)
T3 construct: extracellular domain; Bought protein; also called RIIAR
T3 sequence (looked up): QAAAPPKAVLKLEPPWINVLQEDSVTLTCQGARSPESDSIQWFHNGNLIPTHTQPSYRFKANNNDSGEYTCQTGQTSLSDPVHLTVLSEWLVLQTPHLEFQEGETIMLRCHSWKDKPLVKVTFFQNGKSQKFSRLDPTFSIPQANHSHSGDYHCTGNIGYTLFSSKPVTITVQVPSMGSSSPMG


Columns and labels:
[1] = molecular target: T1, FcγRIIB; assay: ELISA; relative affinity to FcγRIIB over that to FcγRIIA131R
Experimental: (§1) One hundred μl (2 μg/mL) of antibody or mutant thereof were added to the enzyme-linked plate to be coated overnight, then the supernatant was discarded. The plate was blocked with PBS containing 1% BSA for 2 hours, and washed with PBST (PBS containing 0.05% Tween 20). Biotin-labeled FcγR extracellular domain protein (Beijing Sino Biological Co., Ltd) of appropriate concentration was added and incubated at room temperature for 1 hour, then the supernatant was discarded and the plate was washed with PBST. The Biotin-labeled protein was detected by incubating with Streptavidin-HRP (BD BioSciences) at room temperature for 1 hour. The supernatant was removed, and the color-developing solution was added for color development for 20-40 minutes to determine the absorbance of 650 nm (A650).
(§2) Anti-human OX40 antibodies containing these new Fc mutation combinations are expressed and the binding property of the mutant antibody to FcγR are analyzed by Enzyme-linked immunosorbent assay (ELISA).

[2] = molecular target: T2, FcγRIIA^131H; assay: ELISA, coated antibody, biotin-FcγR;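 for Absorbance value: antibody coated at 2 µg/mL at 100 µL per well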
Experimental: as §1, §2

[3] = molecular target: T4, FcγRIIIA^158V (human, UniProt P08637 17-208, biotin-labeled); assay: ELISA, coated antibody, biotin-FcγR;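 for Absorbance value: antibody coated at 2 µg/mL at 100 µL per well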
T4 construct: extracellular domain; Bought protein; also called RIIIAV; CD16a 158V
T4 sequence (P08637 17-208 F176V): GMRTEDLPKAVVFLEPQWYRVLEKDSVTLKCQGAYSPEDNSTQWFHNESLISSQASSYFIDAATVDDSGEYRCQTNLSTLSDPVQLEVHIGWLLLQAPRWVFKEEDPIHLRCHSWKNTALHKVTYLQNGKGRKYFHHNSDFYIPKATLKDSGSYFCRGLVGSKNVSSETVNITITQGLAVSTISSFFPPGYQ
Experimental: as §1, §2

[4] = molecular target: T1, FcγRIIB; assay: ELISA, coated antibody, biotin-FcγR;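 for Absorbance value: antibody coated at 2 µg/mL at 100 µL per well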
Experimental: as §1, §2

[5] = molecular target: T5, FcγRI (human, UniProt P12314 16-292, biotin-labeled); assay: ELISA, coated antibody, biotin-FcγR;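 for Absorbance value: antibody coated at 2 µg/mL at 100 µL per well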
T5 construct: extracellular domain; Bought protein; also called CD64
T5 sequence (P12314 16-292): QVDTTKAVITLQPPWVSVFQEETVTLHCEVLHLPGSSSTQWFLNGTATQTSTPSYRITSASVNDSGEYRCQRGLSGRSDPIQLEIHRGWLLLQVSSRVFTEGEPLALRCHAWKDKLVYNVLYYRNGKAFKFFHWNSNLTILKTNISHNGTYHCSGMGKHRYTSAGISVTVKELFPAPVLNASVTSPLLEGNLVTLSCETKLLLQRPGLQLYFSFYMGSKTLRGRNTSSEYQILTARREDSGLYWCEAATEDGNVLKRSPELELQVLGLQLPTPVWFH
Experimental: as §1, §2

[6] = molecular target: T6, FcγRIIIA^158F (human, UniProt P08637 17-208, biotin-labeled); assay: ELISA, coated antibody, biotin-FcγR;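 for Absorbance value: antibody coated at 2 µg/mL at 100 µL per well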
T6 construct: extracellular domain; Bought protein; also called RIIIAF
T6 sequence (P08637 17-208): as the sequence (P08637 17-208 F176V) above, with V160F counted along it
Experimental: as §1, §2

[7] = molecular target: T3, FcγRIIA^131R; assay: ELISA, coated antibody, biotin-FcγR;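 for Absorbance value: antibody coated at 2 µg/mL at 100 µL per well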
Experimental: as §1, §2

Binder	RIIB/RIIAR [1]	Absorbance value [2]	Relative binding affinity RIIAH/G1 [2]	Absorbance value [3]	Relative binding affinity RIIIAV/G1 [3]	Absorbance value [4]	Increased factor of RIIB binding compared with wild-type IgG2 [4]	Relative binding affinity RIIB/G1 [4]	Absorbance value [5]	Relative binding affinity RI/G1 [5]	Absorbance value [6]	Relative binding affinity RIIIAF/G1 [6]	Absorbance value [7]	Relative binding affinity RIIAR/G1 [7]
IgG2 N297A (antibody, name in EU numbering, Entries include an unstated signal peptide) heavy: QVQLQESGPGLVKPSGTLSLTCAVSGGSISSSIWWSWVRQPPGKGLEWIGEIHHSGNTNCNPSLKSRVTISIDKSKNQFSLKLTSVTAADTAVYYCARAGTGTTLDYWGQGTLVTVSSASTKGPSVFPLAPCSRSTSESTAALGCLVKDYFPEPVTVSWNSGALTSGVHTFPAVLQSSGLYSLSSVVTVPSSNFGTQTYTCNVDHKPSNTKVDKTVERKCCVECPPCPAPPVAGPSVFLFPPKPKDTLMISRTPEVTCVVVDVSHEDPEVQFNWYVDGVEVHNAKTKPREEQFASTFRVVSVLTVVHQDWLNGKEYKCKVSNKGLPAPIEKTISKTKGQPREPQVYTLPPSREEMTKNQVSLTCLVKGFYPSDIAVEWESNGQPENNYKTTPPMLDSDGSFFLYSKLTVDKSRWQQGNVFSCSVMHEALHNHYTQKSLSLSPGK light: EIVLTQSPGTLSLSPGERATLSCRASQSVSGDYLAWYQQKLGQAPRLLIYGASIRATGIPDRFSGSGSGTDFTLTISKLEPEDFAVYYCQQYGSSPLTFGGGTKVEIKRTVAAPSVFIFPPSDEQLKSGTASVVCLLNNFYPREAKVQWKVDNALQSGNSQESVTEQDSKDSTYSLSSTLTLSKADYEKHKVYACEVTHQGLSSPVTKSFNRGEC	0.57 ratio	0.04 A650	0.08 ratio	0.06 A650	0.06 ratio	0.07 A650	0.93 fold	0.09 ratio	0.08 A650	0.03 ratio				
anti-human OX40 IgG2 antibody Mut_2 (H268D/S298L/L328W) (antibody, name in EU numbering, Substitutions in Eu numbering; entries include an unstated signal peptide) heavy: QVQLQESGPGLVKPSGTLSLTCAVSGGSISSSIWWSWVRQPPGKGLEWIGEIHHSGNTNCNPSLKSRVTISIDKSKNQFSLKLTSVTAADTAVYYCARAGTGTTLDYWGQGTLVTVSSASTKGPSVFPLAPCSRSTSESTAALGCLVKDYFPEPVTVSWNSGALTSGVHTFPAVLQSSGLYSLSSVVTVPSSNFGTQTYTCNVDHKPSNTKVDKTVERKCCVECPPCPAPPVAGPSVFLFPPKPKDTLMISRTPEVTCVVVDVSDEDPEVQFNWYVDGVEVHNAKTKPREEQFNLTFRVVSVLTVVHQDWLNGKEYKCKVSNKGWPAPIEKTISKTKGQPREPQVYTLPPSREEMTKNQVSLTCLVKGFYPSDIAVEWESNGQPENNYKTTPPMLDSDGSFFLYSKLTVDKSRWQQGNVFSCSVMHEALHNHYTQKSLSLSPGK light: EIVLTQSPGTLSLSPGERATLSCRASQSVSGDYLAWYQQKLGQAPRLLIYGASIRATGIPDRFSGSGSGTDFTLTISKLEPEDFAVYYCQQYGSSPLTFGGGTKVEIKRTVAAPSVFIFPPSDEQLKSGTASVVCLLNNFYPREAKVQWKVDNALQSGNSQESVTEQDSKDSTYSLSSTLTLSKADYEKHKVYACEVTHQGLSSPVTKSFNRGEC	1.21 ratio	0.32 A650	0.56 ratio	0.06 A650	0.06 ratio	1 A650	13.4 fold	1.33 ratio	0.14 A650	0.05 ratio	0.07 A650	0.38 ratio	0.29 A650	1.09 ratio
anti-human OX40 IgG2 antibody Mut_1 (L328W) (antibody, name in EU numbering, Substitutions in Eu numbering; entries include an unstated signal peptide) heavy: QVQLQESGPGLVKPSGTLSLTCAVSGGSISSSIWWSWVRQPPGKGLEWIGEIHHSGNTNCNPSLKSRVTISIDKSKNQFSLKLTSVTAADTAVYYCARAGTGTTLDYWGQGTLVTVSSASTKGPSVFPLAPCSRSTSESTAALGCLVKDYFPEPVTVSWNSGALTSGVHTFPAVLQSSGLYSLSSVVTVPSSNFGTQTYTCNVDHKPSNTKVDKTVERKCCVECPPCPAPPVAGPSVFLFPPKPKDTLMISRTPEVTCVVVDVSHEDPEVQFNWYVDGVEVHNAKTKPREEQFNSTFRVVSVLTVVHQDWLNGKEYKCKVSNKGWPAPIEKTISKTKGQPREPQVYTLPPSREEMTKNQVSLTCLVKGFYPSDIAVEWESNGQPENNYKTTPPMLDSDGSFFLYSKLTVDKSRWQQGNVFSCSVMHEALHNHYTQKSLSLSPGK light: EIVLTQSPGTLSLSPGERATLSCRASQSVSGDYLAWYQQKLGQAPRLLIYGASIRATGIPDRFSGSGSGTDFTLTISKLEPEDFAVYYCQQYGSSPLTFGGGTKVEIKRTVAAPSVFIFPPSDEQLKSGTASVVCLLNNFYPREAKVQWKVDNALQSGNSQESVTEQDSKDSTYSLSSTLTLSKADYEKHKVYACEVTHQGLSSPVTKSFNRGEC	1.02 ratio	0.35 A650	0.62 ratio	0.09 A650	0.09 ratio	0.64 A650	8.51 fold	0.85 ratio	0.17 A650	0.06 ratio	0.07 A650	0.38 ratio	0.22 A650	0.83 ratio

Other lines, results leading:

RIIB/RIIAR [1]	Absorbance value [2]	Relative binding affinity RIIAH/G1 [2]	Absorbance value [3]	Relative binding affinity RIIIAV/G1 [3]	Absorbance value [4]	Increased factor of RIIB binding compared with wild-type IgG2 [4]	Relative binding affinity RIIB/G1 [4]	Absorbance value [5]	Relative binding affinity RI/G1 [5]	Absorbance value [6]	Relative binding affinity RIIIAF/G1 [6]	Absorbance value [7]	Relative binding affinity RIIAR/G1 [7]	Binder
0.46 ratio	0.48 A650	0.84 ratio	0.05 A650	0.06 ratio	1.92 A650	25.6 fold	2.54 ratio	0.25 A650	0.1 ratio	0.06 A650	0.32 ratio	1.44 A650	5.51 ratio	anti-human OX40 IgG2 antibody Mut_4 (V234M/S267E/S298L/L328W) (antibody, Substitutions in Eu numbering; entries include an unstated signal peptide) heavy: QVQLQESGPGLVKPSGTLSLTCAVSGGSISSSIWWSWVRQPPGKGLEWIGEIHHSGNTNCNPSLKSRVTISIDKSKNQFSLKLTSVTAADTAVYYCARAGTGTTLDYWGQGTLVTVSSASTKGPSVFPLAPCSRSTSESTAALGCLVKDYFPEPVTVSWNSGALTSGVHTFPAVLQSSGLYSLSSVVTVPSSNFGTQTYTCNVDHKPSNTKVDKTVERKCCVECPPCPAPPMAGPSVFLFPPKPKDTLMISRTPEVTCVVVDVEHEDPEVQFNWYVDGVEVHNAKTKPREEQFNLTFRVVSVLTVVHQDWLNGKEYKCKVSNKGWPAPIEKTISKTKGQPREPQVYTLPPSREEMTKNQVSLTCLVKGFYPSDIAVEWESNGQPENNYKTTPPMLDSDGSFFLYSKLTVDKSRWQQGNVFSCSVMHEALHNHYTQKSLSLSPGK light: EIVLTQSPGTLSLSPGERATLSCRASQSVSGDYLAWYQQKLGQAPRLLIYGASIRATGIPDRFSGSGSGTDFTLTISKLEPEDFAVYYCQQYGSSPLTFGGGTKVEIKRTVAAPSVFIFPPSDEQLKSGTASVVCLLNNFYPREAKVQWKVDNALQSGNSQESVTEQDSKDSTYSLSSTLTLSKADYEKHKVYACEVTHQGLSSPVTKSFNRGEC
1.44 ratio	0.34 A650	0.6 ratio	0.07 A650	0.08 ratio	0.94 A650	12.6 fold	1.25 ratio	0.18 A650	0.07 ratio	0.08 A650	0.4 ratio	0.23 A650	0.87 ratio	anti-human OX40 IgG2 antibody Mut_3 (S267V/S298L/L328W) (antibody, name in EU numbering, Substitutions in Eu numbering; entries include an unstated signal peptide) heavy: QVQLQESGPGLVKPSGTLSLTCAVSGGSISSSIWWSWVRQPPGKGLEWIGEIHHSGNTNCNPSLKSRVTISIDKSKNQFSLKLTSVTAADTAVYYCARAGTGTTLDYWGQGTLVTVSSASTKGPSVFPLAPCSRSTSESTAALGCLVKDYFPEPVTVSWNSGALTSGVHTFPAVLQSSGLYSLSSVVTVPSSNFGTQTYTCNVDHKPSNTKVDKTVERKCCVECPPCPAPPVAGPSVFLFPPKPKDTLMISRTPEVTCVVVDVVHEDPEVQFNWYVDGVEVHNAKTKPREEQFNLTFRVVSVLTVVHQDWLNGKEYKCKVSNKGWPAPIEKTISKTKGQPREPQVYTLPPSREEMTKNQVSLTCLVKGFYPSDIAVEWESNGQPENNYKTTPPMLDSDGSFFLYSKLTVDKSRWQQGNVFSCSVMHEALHNHYTQKSLSLSPGK light: EIVLTQSPGTLSLSPGERATLSCRASQSVSGDYLAWYQQKLGQAPRLLIYGASIRATGIPDRFSGSGSGTDFTLTISKLEPEDFAVYYCQQYGSSPLTFGGGTKVEIKRTVAAPSVFIFPPSDEQLKSGTASVVCLLNNFYPREAKVQWKVDNALQSGNSQESVTEQDSKDSTYSLSSTLTLSKADYEKHKVYACEVTHQGLSSPVTKSFNRGEC
